Measurements reported in patent publication US8933202B2, “AXL antibodies” (U3 Pharma GmbH, priority 2007, dated 2015).

Assays:
[1] = system: NIH3T3-AXL cl.7 fibroblasts; test: Boyden chamber/transwell migration assay; assay type: cell-based; conditions: 10 μg/ml antibody, with or without 400 ng/ml Gas6, 7 h
Description: Transmigration experiments were performed in order to investigate whether the antibodies of the invention block cell migration. For this purpose, in the morning of day 1, NIH3T3-AXL cl.7 cells were seeded on 15 cm dished in normal growth medium, which in the evening was replaced by serum-reduced medium (DMEM, 0.5% FCS) in order to starve cells for 36 h. The next day, a FluoroBlock 96 well plate (Becton Dickinson #351164, 8 μm pore size) was coated with 10 μg collagen 1/ml 0.1 M acetic acid over night at 37° C. On day 3, the serum-reduced medium (DMEM, 0.5% FCS) was replaced by serum-free medium (DMEM, 0% FCS, 0.1% BSA) for another 4 h. Cells were harvested with 10 mM EDTA in PBS and pre-incubated with rat anti-AXL antibodies 4A6, 11B7 or 2A1 at a cell density of 4×10^5 cells/ml and an antibody concentration of 10 μg/ml for 45 min. 50 μl cell suspension (20,000 cells) per well were then placed in the top chamber of the FluoroBlock 96-well plate, 225 μl medium (DMEM, 0% FCS, 0.1% BSA) with or without 400 ng/ml mouse Gas6 (R&D Systems) were used per well in the bottom chamber. Cells were left to migrate for 7 h at 37° C. and stained afterwards with 4.2 μM calcein-AM (Molecular Probes #C3099) in PBS, 1 mM CaCl2, 1 mM MgCl2 for 1 h at 37° C. Using a Victor plate reader (Perkin Elmer), the fluorescence of each well was measured at a wavelength of 530 nm.

p42/p44 MAP-Kinase = p42/p44 MAP-Kinase phosphorylation ELISA; assay type: cell-based, human; conditions: 10 μg/ml antibody, 400 ng/ml Gas6; CaSki cervical cancer cells
Description: Next, ELISA experiments were performed in order to investigate whether the rat anti-AXL antibodies of the invention are able to block ligand Gas6-mediated activation of p42/p44 MAP-Kinase. Gas6-mediated p42/p44 MAP-Kinase activation was detected by increased protein (Thr202/Tyr204) phosphorylation. In brief, on the first day, 2×10^4 cells per well were seeded in flat-bottom 96 well plates. The next day, normal growth medium was replaced by serum-free medium to starve cells for 36 h. […] Medium was flicked out and cells were fixed with 4% formaldehyde in PBS (pH 7.5) for 30 min at room temperature. Formaldehyde solution was removed and cells were washed twice with wash buffer (PBS, 0.1% Tween 20). Cells were quenched with 1% H2O2, 0.1% NaN3 in wash buffer and incubated for 20 min at room temperature. Afterwards, the quenching solution was removed, and cells were washed twice with wash buffer and blocked with PBS, 0.5% BSA for 4 h at 4° C. Anti-phospho-p42/p44 MAP Kinase (Thr202/Tyr204) primary antibody (polyclonal rabbit; Cell Signaling #9101) diluted 1:500 in PBS, 0.5% BSA, 5 mM EDTA was added over night at 4° C. On day 4, the antibody solution was removed and the plate was washed 3× with wash buffer. […] Tetramethylbenzidine (TMB, Calbiochem) was added and monitored at 620 nm.

[2] = system: PC-3-LN prostate carcinoma; test: Orthotopic prostate carcinoma xenograft model in nude mice; assay type: in vivo, NMRI nu/nu mice
Description: The anti-tumor efficacy of therapeutic antibodies is often evaluated in human xenograft tumor studies. In these model systems, human tumors grow as xenografts in immunocompromised mice and therapeutic efficacy is measured by the degree of tumor growth inhibition. The aim of this study was to evaluate whether the antagonistic rat anti-AXL antibody 11B7 of the invention interferes with tumor growth of human prostate cancer cells in nude mice. In brief, on day 0, 7-8 weeks old male NMRI^−nu/nu mice (approximate weight: 30 g after acclimatization) were anesthesized with 1.5-2.0 volume percent isoflurane at an oxygen flow rate of 2 l/min, and 1×10^6 PC-3-LN cells in 25 μl PBS were orthotopically implanted into the prostate. PC-3-LN cells are derived from the PC-3 prostate carcinoma cell line which was infected with a retrovirus coding for a luciferase-neomycin fusion protein. The onset of tumor growth and tumor growth progression was therefore measurable via in vivo bioluminescence imaging. For this purpose, luciferin was injected intraperitoneally (i.p.) into the mice and light emission was measured 10 min post injection using a NightOWL LB 981 bioluminescence imaging system (Berthold Technologies, Germany). Prior to first treatment, mice were randomized and statistical tests performed to assure uniformity in starting tumor volumes (mean, median and standard deviation) across the treatment groups of 10 animals each. On day 8, all treatments started and were continued until day 34, followed by necropsy on day 35. […] In the same experiment as described under “Rat anti-AXL antibodies of the invention reduce human prostate carcinoma growth in nude mice”, relocalization of PC-3-LN tumor cells into other organs (metastasis) was analyzed post necropsy to evaluate anti-metastatic effects of the antagonistic rat anti-AXL antibody 11B7 of the invention. […] Subsequently, light emission was measured using a NightOWL LB 981 bioluminescence imaging system (Berthold Technologies, Germany).

[3] = system: NIH3T3-AXL cl.7 fibroblasts; test: AlamarBlue Gas6-induced proliferation assay; assay type: cell-based; conditions: 20 μg/ml antibody, with or without 400 ng/ml Gas6, 96 h
Description: In vitro experiments were conducted in order to determine the ability of the rat anti-AXL antibodies of the invention to inhibit Gas6-induced cell proliferation. For this purpose, 2,500 NIH3T3-AXL cl.7 fibroblasts per well were seeded in FCS-containing medium on 96 well plates over night. […] Cells were treated with or without 400 ng/ml mouse Gas6 (R&D Systems) by adding ligand directly to the antibody solution, and were then left to grow for 96 h. AlamarBlue™ (BIOSOURCE #DAL1100) was added and incubated at 37° C. in the dark. Absorbance was measured at 590 nm every 30 min. The data were taken 4 h after addition of AlamarBlue™.

B1: 11B7: antagonistic rat anti-AXL monoclonal antibody, rat IgG1 (antibody, V domains shown)
VL: DIQMTQAPSSLPASLGDRVTITCRASQDIGNYLRWFQQKPGKSPRLMISGATNLAAGVPSRFSGSRSGSDYSLTISSLESEDMADYYCLQSKESPWTFGGGTKLELK
VH: EVQLQESGPGLVKPSQSLSLTCSVTGYSITSNYWGWIRKFPGDKMEWMGYITYSGSTSYNPSLKSRISITRDTSKNQFFLQLNSVTSEDTATYYCAITTFYYWGQGVMVTVSS
directed cell migration [1]: reduced both basal and Gas6-induced migration
ligand-mediated p42/p44 MAP-Kinase activation (phosphorylation) (p42/p44 MAP-Kinase): able to reduce ligand-mediated p42/p44 MAP-Kinase activation
overall growth of PC-3-LN prostate tumors (in vivo bioluminescence) ([2]; 25 mg/kg i.p. 3x a week, day 8 to 34, compared to isotypic control antibody 1D5): reduced the overall growth of PC-3-LN prostate tumors
occurrence of spleen metastases ([2]; 25 mg/kg i.p. 3x a week, post necropsy, compared to 1D5): reduced the occurrence of spleen metastases
anti-metastatic effect compared with Sutent ([2]; 11B7 25 mg/kg i.p. versus Sutent 40 mg/kg p.o. daily, spleen): stronger than that of Sutent
cell proliferation [3]: blocked Gas6-induced proliferation
